This note sets out measurements from article PMC10035497, “Structures of Cancer Antigen Mesothelin and Its Complexes with Therapeutic Antibodies” (Cancer Research Communications, 2023).

The assay has as its target T1, C-terminal shedding-resistant peptide of MSLN (residues 582-598) (human, UniProt Q13421-3).
T1 construct: Mesothelin, human, 17-residue peptide I582 to S598, holds most of the major sheddase cleavage sites; numbers count on: the 622-residue precursor, isoform Q13421-3; also called C-terminal peptide; 17-residue peptide; source: synthetic peptide (GenScript)
T1 chain: IPNGYLVLDLSMQEALS
Put plainly: crystal structure; synthetic peptide 582-598 mixed with Fab(15B6) at a molar ratio of 3:1 in 20 mmol/L Tris, 100 mmol/L NaCl, pH 7.5, overnight at 4°C; 1.74 Å. The note with it: both partners purified.

B1: Fab fragment of mAb 15B6 (Fab, V domains shown)
VH: EVQLQQSGPVLVKPGASVKISCKASGYSFTGYYMHWVRQSNGKSLEWIGRINPYTGVPSYKHNFKDKASLTVDKSSSTAYMELHSLTSEDSAVYYCARELGGYWGQGTTLTVSS
VL: QAVVTQESALTTSPGETVTLTCRSSTGAVTTGNYPNWVQEKPDHLFTGLIAGTNNRAPGVPARFSGSLIGDKAALTITGAQTEDEAIYFCALWFSSHWVFGGGTKLTVL
notes: heavy chain of the Fab in PDB 7U8C (214 residues modelled); mouse IgG2b; light chain of the Fab in PDB 7U8C (213 residues modelled); mouse lambda; mouse isotype IgG2b lambda; raised against the peptide I582-S598; also called Fab(15B6); Fab of Mab 15B6; source: mAb 15B6 obtained from GenScript, digested with immobilised papain, Fc removed on Protein A
Turning to B1, the binding result is on record as “binds”.
